B1: C41N6 (antibody, V domains shown)
VH: QVQLVESGGGVVQPGGSLRLSCAASGFTFSSYGMHWVRQAPGKGLEWVAFIRYDGSNNYYADSVKGRFTISRHNSKNTLYLQMNSLRAEDTAVYYCAKVTITIFGVVIYGMDVWGQGTTVTVSS
VL: not shown
B2: C30A11 (antibody, V domains shown)
VH: QVQLVQSGAEVKKPGASVKVSCKASGYTFTGYYIHWVRQAPGQGLEWMGWINPNSGVTNYAQKFQGWVTMTRDTSISTAYMELSRLKSDDTAVYYCAREMQQLEGYYYYAMDVWGQGTTVTVSS
VL: not shown
B3: C83B8 (antibody, V domains shown)
VH: QVQLVQSGAEVKKPGSSVKVSCKASGGTFSSYAISWVRQAPGQGLEWMGGIIPIFGTANYAQKFQGRVTITADESTSTAYMELSSLKSEDTAVYYCASTSYYDSSGYYLDYWGQGTLVTVSS
VL: EIVLTQSPATLSLSPGERATLSCRASQSVSSFLAWYQQKPGQAPRLLIYDASNRATGIPARFSGSGSGTDFTLTISSLEPEDFAVYYCQQRSNWPPKITFGQGTRLEIK
B4: C163D1 (antibody, V domains shown)
VH: QVQLVQSGAEVKKPGSSVKVSCKASGGTFSSYAISWVRQAPGQGLEWMGGIIPIFGTANYAQKFQGRVTITADESTSTAYMELSSLRSEDTAVYYCARVSGYDSSGYSPDYWGQGTLVTVSS
VL: EIVLTQSPATLSLSPGERATLSCRASQSVSSYLAWYQQKPGQAPRLLIYDASNRATGIPARFSGSGSGTDFTLTISSLEPEDFAVYYCQQRSNWPPRLTFGGGTKVEIK
B5: C83A10 (antibody, V domains shown)
VH: QVQLVQSGAEVKKPGSSVKVSCKASGGTFSSYAISWVRQAPGQGLEWMGGIIPIFGTAKYAQKFQGRVTITADESTSTAYLELSSLRSEDTAVYYCARVGPYDSSGYYYDYWGQGTLVTVSS
VL: EIVLTQSPATLSLSPGERATLSCRASQSVSSYLAWYQQKPGQAPRLLIYDASNRATGIPARFSGSGSGTDFTLTISSLEPEDFAVYYCQQRSNWPPMYTFGQGTKLEIK
B6: C102A1 (antibody, V domains shown)
VH: QVQLVQSGAEVKKPGSSVKVSCEASGGTFSSYAISWVRQAPGQGLEWMGGIIPIFGTANYAQKFQGRLTITADESTSTAFMELSSLRSEDTAVYYCARTYYYDSSGYSHDYWGQGTLVTVSS
VL: EIVLTQSPATLSLSPGERATLSCRASQSLSSFLAWYQQKPGQAPRLLIYDASNRATGIPARFSGSGSGTDFTLTISSLEPEDFAVYYCQQRTNWPPRITFGQGTRLEIK
B7: C12B2 (antibody, V domains shown)
VH: QVQLVQSGAEVKKPGSSVKVSCKASGGTFSSYAISWVRQAPGQGLEWMGGIIPIFGTANYAQKFQGRVTITADESTSTAYMELSSLRSEDTAVYYCARMDYYDSSGYYLDYWGQGTLVTVSS
VL: EIVLTQSPATLSLSPGERATLSCRASQSVSNFLAWYQQKPGQAPRLLIYDASNRATGIPARFSGSGSGTDFTLTISSLEPEDFAVYYCLQRSNWPPRLTFGGGTKVEIK
B8: C81D9 (antibody, V domains shown)
VH: QVQLVESGGGVVQPGRSLRLSCAASGFTFSSYAMHWVRQAPGKGLEWVAVISYDGSNKYYADSVRGRFTISRDNSKNTLYLQMNSLRAEDTAVYYCARAWGGSYRGGLDYWGQGTLVTVSS
VL: DIQMTQSPSSLSASVGYRVTITCRASQSISSWLAWYQQKPGKAPKLLIYKASSLESGVPSRFSGSGSGTEFTLTISSLQPDDFATYYCQQYNSYWTFGQGTKVEIK
B9: C81E2 (antibody, V domains shown)
VH: not shown
VL: DIQMTQSPSSLSASVGDRVTITCRASQGISNYLAWYQQKPGKVPKLLIYAASTLQSGVPSRFSGSGSGTDFTLTISSLQPEDVATYYCQKYNSASPLTFGGGTKVEIK
B10: G32M5 (antibody, V domains shown)
VH: EVQLLESGGGLVQPGGSLRLSCAASGFTFSSYAMSWVRQAPGKGLEWVSGISASGGSTYYADSVKGRFTISRDNSKNTLYLQMNSLRAEDTAVYYCAKDGGPYSKGPYHYYGMDVWGQGTTVTVSS
VL: QSVLTQPPSVSAAPGQKVTISCSGSSSNIGNNYVSWYQQLPGTAPKLLIYDNNKRPSGIPDRFSGSKSGTSATLGITGLQTGDEADYYCGTWDSSLSAYVFGTGTKVTVL
B11: G32R10 (antibody, V domains shown)
VH: EVQLLESGGGLVQPGGSLRLSCAASGFTFSRYAMSWVRQAPGKGLEWVSAISGSGGSTYYSDSVEGRFTISRDNSKNTLYVQMNSLRAEDTAVYYCAKDAGFIPLYYFDYWGQGTLVTVSS
VL: EIVMTQSPVTLSVSPGERATLSCRASQSVSSNLAWYQQKPGQAPRLLIYGASTRATGIPARFSGSGSGTEFTLIISSLQSEDFAVYNCQQYNNWPWTFGQGTKVEIK
B12: C107A2 (antibody, V domains shown)
VH: EVQLVESGGGLVQPGGSLRLSCAASEFTVNNNYMSWVRQAPGKGLEWVSIIYSGGSTYYADSVKGRFTISRDNSKNTLYLQMNSLRAEDTAVYYCARNHITMVRGVIKYQDYWGQGTLVTVSS
VL: not shown
B13: G32M4 (antibody, V domains shown)
VH: QVQLVESGGGVVQPGRSLRLSCAASGFTFRSYAMHWVRQAPGKGLEWVAVISYDGSNKYYADSVKGRFTISRDNSKNTLYLQMNSLRAEDTAVYYCAKSYSGSYLAAFDIWGQGTMVTVSS
VL: EIVLTQSPGTLSLSPGERATLSCRASQIFSSSYLAWYQQKPGQAPRLLIYGASSRATGIPDRFSGSGSGTDFTLTISRLEPEDFAVYYCQQYGSSITFGQGTRLEIK
B14: C30A5 (antibody, V domains shown)
VH: QVQLVESGGGVVQPGRSLRLSCAASGFTFSTYAMHWVRQAPGKGLEWVAVISYDGSNKYYADSVKGRFTISRDNSKNTLYLQLNSLRAEDTAVYYCAKSGSGHYFAPFDYWGQGTLVTVSS
VL: not shown
B15: C81H7 (antibody, V domains shown)
VH: QVQLVESGGGVVQPGRSLRLSCAASGFTFSSYGMHWVRQAPGKGLEWVAVIWYDGSNKYYAESVKGRFTISRDNSKNTLYLQMNSLRAEDTAVYYCARPPSVVRHDAFDIWGQGTMVTVSS
VL: SYELTQPPSVSVSPGQTARITCSGDALPKKYAYWYQQKSGQAPVLVIYEDSKRPSGIPERFSGSSSGTMATLTISGAQVEDEADYYCYSTDSSGNHGVFGGGTKLTVL
B16: C12I9 (antibody, V domains shown)
VH: QVQLVQSGAEVKKPGASVKVSCKASGYTFTGYYMHWVRQDPGQGLEWMGWINPNSGVTNYAQKFQGWVTMTRDTSISTAYMELSRLKSDDTAVYYCAREVGAVAGTFYYGLDVWGQGTTVTVSS
VL: QSALTQPRSVSGSPEQSVAISCTGTSSDVGGNNYVSWYQQHPGKAPKLMIYDVSKRPSGVPDRFSGSKSGNTASLTISGLQAEDEADYYCCSYAGSYTFGVVFGGGTKLTVL
B17: C882C12 (antibody, V domains shown)
VH: QVQLVQSGAEVKKPGASVKVSCKASGYTFTGYYMHWVRQAPGQGLEWMGWINPNSDVTNYAQKFQGWVTMTRDTSISTAYMELSRLRSDDTAVYYCAREIPSSGYYSGGLDYWGQGTLVTVSS
VL: QSALTQPRSVSGSPGQSVTISCTGTSSDVGGYNYVSWYQQYPGKAPKLMIYDVSKRPSGVPDRFSGSKSGNTASLTISGLQAEDEADYYCCSYAGTYTGVFGGGTKLTVL

The assay has as its target SARS-CoV-2 S ectodomain trimer, prefusion-stabilized, 2P variant (Wrapp et al., 2020) (SARS-CoV-2, Wuhan-Hu-1, UniProt P0DTC2, stabilised).
On to B1, for which the binding result was “binds”.

As for B2, the binding result is on record as “binds”.

Consider B3, for which the binding result is “binds”.

Turning to B4, the binding result is listed as “binds”.

Consider B5, for which the binding result is reported as “binds”.

On to B6, for which the binding result is recorded as “binds”.

Regarding B7, the binding result is listed as “binds”.

For the molecule B8, the binding result is “binds”.

Take B9: the binding result is “binds”.

Turning to B10, the binding result was “binds”.

With B11, the binding result was “binds”.

As to B12, the binding result is listed as “binds”.

In the case of B13, the binding result is “binds”.

With B14, the binding result was “binds”.

Regarding B15, the binding result is on record as “binds”.

For the molecule B16, the binding result was “binds”.

For B17, the binding result is listed as “binds”.

The values are drawn from paper PMC8299219 (Cell, 2021).
